Source: patent publication US20200239586A1 (LA TROBE UNIVERSITY, published 2020)
Like-named read-outs stand apart in the source and are kept apart here. Ends that are not written are not given here. * marks the point of attachment. Biotin = O=C1N[C@H]2[C@H](CS[C@H]2CCCCC(=O)*)N1

T1: human Fn14 (human, UniProt Q9NP84 28-129)
T1 sequence: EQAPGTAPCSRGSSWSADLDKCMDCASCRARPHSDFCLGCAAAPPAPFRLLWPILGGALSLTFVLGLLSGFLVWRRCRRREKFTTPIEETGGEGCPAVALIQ

T2: synthetic peptide hFn14 sub-domain 1p (human, biotin on the added C-terminal lysine)
T2 construct: synthesised by GLBiochem
T2 peptide: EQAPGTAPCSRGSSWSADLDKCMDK

T3: synthetic peptide hFn14 sub-domain 2 (human, biotin on the added C-terminal lysine; disulfide bonds as in the solution structure of He et al. 2009)
T3 construct: also called sub-domain 2 peptide
T3 peptide: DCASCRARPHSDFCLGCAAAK

T4: synthetic peptide hFn14 sub-domain 3 (human, cysteine pairing not given here)
T4 construct: also called sub-domain 3 peptide
T4 peptide: ASCRARPHSDFCLGK(Biotin)

T5: Histidine tagged mouse Fn14 extracellular domain (mouse, UniProt Q9CR75 28-80)
T5 construct: extracellular domain; also called mFn14; not shown: (His)6 tag from pET-15b
T5 sequence (looked up): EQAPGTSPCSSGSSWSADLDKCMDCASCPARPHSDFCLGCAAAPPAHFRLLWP

T6: synthetic peptide Sub-domain 2 Cys 3&6 ΔS (human, not fully specified; biotin on the added C-terminal lysine)
T6 construct: also called sub-domain 2 cys3&6ΔS mutant
T6 peptide: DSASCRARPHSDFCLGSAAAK


Assays:
human Fn14 [1] = target: T1, human Fn14; assay: cell-based or functional assay
human Fn14 [2] = target: T1, human Fn14; assay: cell-based or functional assay; remark: listed apart in the source
[3] = target: T2, synthetic peptide hFn14 sub-domain 1p; assay: ELISA on biotinylated synthetic peptide
Protocol: (§1) Peptides representing sub-domains 1p, 2 and 3 of hFn14 (FIG. 20, Panels B and C and FIG. 14, Panel A) and for disulfide pair mutants (Cys3&6ΔS and Cys4&5ΔS; FIG. 20 Panels D and E) were synthesized by GLBiochem Ltd. (Shanghai, China) and the cysteine residues for disulfide bonds were chosen as described in the solution structure by He et al., (2009). An additional lysine residue was added to the C-terminus in order to attach a biotin moiety and to enable the peptides to bind to neutravidin coated plates (Pre-blocked; Pierce). For these experiments, a control peptide with a biotin at the C-terminus was used as a negative control and isotype control antibodies were also used.
(§2) The ELISA was performed essentially according to the manufacturer's recommended protocol (Pierce). Briefly, peptide was coated onto wells (in duplicate) at 1-10 μg/ml for 2 hours at room temperature. Wells were washed in PBS/0.05% Tween 20/0.1% BSA 3 times and dilutions of each antibody were added in wash buffer for 1 hour with gentle agitation. After another three washes anti-mouse HRP-conjugated to horse radish peroxidase (HRP; Chemicon) was added at 1/1000 dilution for 1 hour shaking. Finally, after 4 further washes the plate was developed using TMB (3,3′,5,5′-tetramethylbenzidine) substrate (Pierce), and the reaction was stopped using 2M H2SO4 solution. Optical density at 450 nm was quantified using a Spectromax absorbance spectrophotometer.

[4] = target: T3, synthetic peptide hFn14 sub-domain 2; assay: ELISA on biotinylated sub-domain 2 peptide, mAb at 5 ng/ml
From the text: FIG. 21B is a graphical representation showing reactivity of anti-Fn14 mAbs CRCBT-06-001, CRCBT-06-002, CRCBT-06-003, CRCBT-06-004, CRCBT-06-005, CRCBT-06-006, CRCBT-06-007 and ITEM-1 with a synthetic peptide representing sub-domain 2 of Fn14. Plates were coated with sub-domain 2 peptide and various dilutions of antibody were allowed to bind, bound antibody was detected with anti-mouse HRP and TMB substrate. The average of duplicate readings are plotted, error bars represent standard deviations. The ELISA was repeated to ensure consistent results. The vertical line at 5 ng/ml within the linear part of the curves is the point at which a comparison of the reactivity of each mAb was analyzed.
as §1
as §2, with “Finally, after 4 further washes the plate was developed using TMB (3,3′,5,5′-tetramethylbenzidine) substrate (Pierce), and the reaction was stopped using 2M H2SO4 solution.” left out

[5] = target: T4, synthetic peptide hFn14 sub-domain 3; assay: ELISA on biotinylated sub-domain 3 peptide, mAb at 0.2 ug/ml
Protocol: An additional lysine residue was added to the C-terminus in order to attach a biotin moiety and to enable the peptides to bind to neutravidin coated plates (Pre-blocked; Pierce). For these experiments, a control peptide with a biotin at the C-terminus was used as a negative control and isotype control antibodies were also used.
as §2
The reactivity of CRCBT-06-001 CRCBT-06-002, CRCBT-06-003, CRCBT-06-004, CRCBT-06-005, CRCBT-06-006 and CRCBT-06-007 with sub-domain 3 was lower than for sub-domain 2, indicating this region may be a partial epitope for these antibodies. However, the differences in binding to this region could reveal subtle variations in the contact regions of the antibodies with hFn14. The order of binding from strongest to weakest was CRCBT-06-005, CRCBT-06-002, CRCBT-06-001, CRCBT-06-006, CRCBT-06-007 and ITEM-1. The relative binding of each antibody to sub-domain 3 at a single point in the linear region of the curves was measured at 0.2 µg/ml (FIG. 21C). […] This could indicate the epitope of ITEM-1 may differ slightly to the CRCBT antibodies based on weaker interaction with surface exposed residues in sub-domain 3.

[6] = target: T7, phage-displayed hFn14 extracellular domain (human, UniProt Q9NP84 28-77); assay: phage ELISA, antibody on plate, 10-fold phage dilutions
T7 construct: also called FN14 Ectodomain; FN14 Ecto
Protocol: Each normalized preparation was 10-fold serially diluted and added in solution to the MAbs attached to the solid phase. ELISAs shown here were performed simultaneously with the same preparations of phage. Binding was detected using HRP-conjugated anti-M13 phage polyclonal IgG and TMB substrate. Optical density at 450 nm was quantified using a Spectramax spectrophotometer. Error bars for each dilution represent the standard deviation of duplicate assays. […] ELISAs were performed under similar conditions to those described for Panel A. Methods according to Epitope mapping using phage expressed Fn14—Method 1.
The wells of Maxisorp immunoplates (Nunc) were coated overnight at 4° C. with the target monoclonal antibodies or recombinant Tweak-Fc at a concentration of 2 μg/mL in PBS. MAb 5G8 was used as a negative control for ELISA plates coated with tested antibodies. Recombinant Fc alone was used as a negative control for ELISA plates coated with recombinant Tweak-Fc. […] 10-fold serial dilutions of phage were made using 5% skim milk/PBS solution in 2 ml-well microtiter plates and phage dilutions were added to the coated, blocked ELISA plates for 1 hr, with vigorous shaking at room temperature. Phage were subsequently removed from the wells and the ELISA plates were washed 4× with PBS/0.05% Tween 20. […]

[7] = target: T8, Histidine tagged hFn14 extracellular domain, bacterially expressed (human, UniProt Q9NP84 28-77); assay: ELISA on coated His-tagged protein
T8 construct: also called recombinant Fn14; recombinant human Fn14; not shown: (His)6 tag from pET-15b

[8] = target: T7, phage-displayed hFn14 extracellular …; assay: phage ELISA, antibody on plate, 10-fold phage dilutions; remark: listed apart in the source
Protocol: Each normalized preparation was 10-fold serially diluted and added in solution to the MAbs attached to the solid phase. All ELISAs shown were performed simultaneously with the same preparations of phage. Binding was detected using HRP-conjugated anti-M13 phage polyclonal IgG and TMB substrate. Optical density at 450 nm was quantified using a Spectramax spectrophotometer. Error bars for each dilution represent the standard deviation of duplicate assays. In this figure, reference to “FN14 Ecto” is a reference to the extracellular domain of hFn14. Methods according to Epitope mapping using phage expressed Fn14—Method 1.
The wells of Maxisorp immunoplates (Nunc) were coated overnight at 4° C. with the target monoclonal antibodies or recombinant Tweak-Fc at a concentration of 2 μg/mL in PBS. MAb 5G8 was used as a negative control for ELISA plates coated with tested antibodies. Recombinant Fc alone was used as a negative control for ELISA plates coated with recombinant Tweak-Fc. […] 10-fold serial dilutions of phage were made using 5% skim milk/PBS solution in 2 ml-well microtiter plates and phage dilutions were added to the coated, blocked ELISA plates for 1 hr, with vigorous shaking at room temperature. […] Optical density at 450 nm was quantified using a Spectramax absorbance spectrophotometer.

[9] = target: T5, Histidine tagged mouse Fn14 …; assay: ELISA with purified His-tagged mouse Fn14; x axis 'Log (c)' without unit, µg/ml by the legend
[10] = target: T9, His tagged hFn14 extracellular region mutant R56P (human, UniProt Q9NP84 28-77); assay: ELISA with purified His-tagged hFn14 R56P; x axis 'Log (c)' without unit, µg/ml by the legend
T9 construct: also called R56P mutant; not shown: (His)6 tag

[11] = target: T10, His tagged hFn14 extracellular region mutant R56A (human, UniProt Q9NP84 28-77); assay: ELISA with purified His-tagged hFn14 R56A; x axis 'Log (c)' without unit, µg/ml by the legend
T10 construct: not shown: (His)6 tag

[12] = target: T11, His tagged hFn14 extracellular region mutant R56K (human, UniProt Q9NP84 28-77); assay: ELISA with purified His-tagged hFn14 R56K; x axis 'Log (c)' without unit, µg/ml by the legend
T11 construct: not shown: (His)6 tag

[13] = target: T6, synthetic peptide Sub-domain 2 Cys 3&6 …; assay: peptide ELISA: biotinylated synthetic peptide on neutravidin plate, antibody titrated (legend: 0.1-0.0001 µg/ml; axis 'Log (c)'), anti-mouse HRP, TMB, OD 450 nm

Row | NFκB-GFP reporter in HEK293T cells (human Fn14 [1]) [µg/mL] | % Agonist, IL-8 secretion by A375 cells (human Fn14 [2]) [%] | % Antagonist, IL-8 secretion by A375 cells (human Fn14 [2]) [%] | binding result [3] | % decrease in binding compared to CRCBT-06-001 and CRCBT-06-002 [4] [%] | % decrease in binding compared with CRCBT-06-005 [5] [%] | binding result [6] | binding result [7] | binding result [8] | binding result [9] | binding result [10] | binding result [11] | binding result [12] | binding result [13] | Binder
1 | 1 | 16 | 89 | no binding | 48 | 73 | binds |  |  |  |  |  |  |  | CRCBT-06-007 (antibody, IgG2b, V domains shown) VH: QVKLEESGGVLVQPGGSMKLSCIASGFSFSKYWMNWVRQSPEKGLEWVAEIRVKSNNYATHYAESVKGRFIISRDDSKSSVYLQMNNLRAEDTGIYYCTKSYADYFDYWGQGTTLTVSS VL: DIVMTQSTASLAVSLGQRATISCRASQSVSTSSYSYMHWYQQKPGQPPKVLIKYASNLESGVPARFSGSGSGTDFTLNIHPVEEEDAATYYCQHSWEIPYTFGGGTKLEIKR
2 | 1 | 26 | 92 | no binding | 40 |  |  | binds | binds | binds | binds | binds | binds | binds | CRCBT-06-005 (antibody, IgG2b, V domains shown) VH: QVQLQESGGGLVQPGGSMKLSCVASGFTFSYYWMNWVRQSPEQGLEWIAEIRLQSNDYPTHYAESVKGRFTISRDDSKNSVYLQMNNLRPEDTGIYYCACRYADYFDHWGQGTTLTVSS VL: DIVLTQTTASLTVSLGQRATISCRASQSVSTSTYSYMHWYQQTPGQPPTVLIKYASSLESGVPTRFSGSGSGTDFTLNIHPVEEEDTATYYCQHSWEIPYTFGGGTKLEIKR
3 | 1 | 106 |  | no binding | 76 | 73 |  |  | binds |  |  |  |  |  | CRCBT-06-006 (antibody, IgG2a, V domains shown) VH: QVQLQESGGGLVQPGGSMKLSCVASGFTFSYYWMNWVRQSPEQGLEWIAEIRLQSNDYPTHYAESVKGRFTISRDDSKNSVYLQMNNLRPEDTGIYYCACRYADYFDHWGQGTTLTVSS VL: DIVITQSPASLTVSLGQRATISCRASQSVSTSTYSYMHWYQQTPGQPPTVLIKYASSLESGVPTRFSGSGSGTDFTLNIHPVEEEDTATYYCQHSWEIPYTFGGGTKLEIKR
